Measured values published in article PMC6458997.
Residue numbers refer to the chain shown, from its start.

Tests used:
AimR N202A (SPbeta) = target: T1, AimR N202A (SPbeta) (Bacillus subtilis phage SPbeta (cloned …, UniProt O31927 1-386, N202A)); assay: EMSA; apo; WT probe assumed; EMSA: 50 mM HEPES pH 7.5, 5 mM MgCl2, 75 mM NaCl, 0.5 mM EDTA; 0.4 uM DNA, 4 uM AimR; 10 min at room temperature; 8% PAGE in TBE at 4 C or agarose in TAE at room temperature; details: protein: recombinant; tags: N-terminal 6xHis-TEV, cleaved (as WT); chain copies: 2
T1 sequence: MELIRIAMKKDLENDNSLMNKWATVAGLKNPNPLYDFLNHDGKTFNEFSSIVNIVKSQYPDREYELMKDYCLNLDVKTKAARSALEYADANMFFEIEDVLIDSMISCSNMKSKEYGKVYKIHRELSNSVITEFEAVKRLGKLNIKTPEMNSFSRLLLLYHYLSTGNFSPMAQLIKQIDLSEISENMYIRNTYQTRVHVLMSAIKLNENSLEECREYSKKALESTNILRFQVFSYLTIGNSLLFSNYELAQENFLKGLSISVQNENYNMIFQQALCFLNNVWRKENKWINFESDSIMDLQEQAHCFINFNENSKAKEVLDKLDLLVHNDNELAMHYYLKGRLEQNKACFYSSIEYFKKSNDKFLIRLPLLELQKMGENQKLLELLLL

AimR D360A (SPbeta) = target: T2, AimR D360A (SPbeta) (Bacillus subtilis phage SPbeta (cloned …, UniProt O31927 1-386, D360A)); assay: as above; details: protein: recombinant; tags: N-terminal 6xHis-TEV, cleaved (as WT); chain copies: 2
T2 sequence: T1 sequence with A202N, D360A

B1: SPbeta operator WT 45 bp (dsDNA)
DNA 1: GTTGATCACTAGATGTTATTAAAACCTAATATTTAAGTGATGGCC
DNA 2: GGCCATCACTTAAATATTAGGTTTTAATAACATCTAGTGATCAAC
B1: binds (AimR N202A (SPbeta)); no binding (AimR D360A (SPbeta)).
